Where two headings read alike, the source gives them in different places.

Assay in all cases: EMSA
A general note: Mobility shift assays separate free from complexed probe on a gel.

The target of series [1] is T1, HuR (wild type) (UniProt Q15717 1-326).
In series [2] the target is HuRΔH (UniProt Q15717 1-326, del186-242).
The target of series [3] is HuRΔ3 (UniProt Q15717 1-242, del243-326).
For series [4], the target named is T1, HuR (wild type). The source holds these as a separate data set.

B1: HBS_50_MBSp (ssRNA)
RNA: GGUAUUUAUUUAUUUAUUUGUUUGUUUGUUUUAUUGCUGUACGAGAGAGUCACUGUGCUGAUGUGGACUCAACAUCUGAUGAGCAACUAUACAACCUACUACCUCAACGUUACACU
In the case of B1, the binding result in series [1], in series [2] and in series [3] was “binds” in each case.

B2: HBSMut_20_MBSp (ssRNA)
RNA: GGUAUAUAUGUCAUGCAUACGUAUGUGCGUAUCUACUAGGUCCAAAGAGUGAGACUGACUAUACAACCUACUACCUCAACGUUACACU
Regarding B2, the binding result in series [4] is reported as “no binding”.

B3: ΔHBS_20_MBSp (ssRNA)
RNA: GGAGGUCCAAAGAGUGAGACUGACUAUACAACCUACUACCUCAACGUUACACU
In the case of B3, in series [4], the binding result was “no binding”.
